Assay: soluble fraction after stress (log2 fold change); higher = more stays soluble; pooled small domains, quantitative proteomics
Details: stress: 75 degC
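Further: 20 min heating vs room temperature control held 20 min.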

Row | Sequence | soluble fraction (log2)
1 | HMKEPIYQTILSALILELNTNHFRKNDPFYSESELRKKYQVSSTTVVRVLNMLADQGYIYRIQGKGSFVSK | -2.62
2 | HMEVVELTDDEKMILATLHDGPVEIGHIKQVVGLSGKKWDAATKSLRQKGLINVVLENEQKLMVK | 0.492
3 | HMPDVAIMNVSVEPEKKVVRLQVKAISLEALLDFSTRLEAIPARVELQNHTPSKELSQKWAVNATLIVIY | 0.482
4 | HMDENMQRYNTMEEIKKEFPYAEDTVRKLIAMGAIRGGGKVDANGDPADMDLSRDMLRMMVFNDRAGAYG | 0.524
5 | HMIGAKVLVNGQLHRDSYGEGPGQTESNATRLVNYINMKGSHPYHVTTLDGGWRGWVTADSVQV | 0.139
6 | HMGRTGTVVVSPSLNVRTGPWGEIIGSLYNGNKVEIIGSSGDWYQISFGGKTAYVHSDYVVDGG | -1.26
7 | HMVSLSNQVFEKIEYDILSGKYKIGEIISEKRLSSELGVSRTPIREALGRLSEEGLVGDSPSGTVVLGI | -0.368
8 | HMKVIAEESYRILVDAIEKLPPQMKSIMQLALEGKSNPEIAETLNISGETVHSQKKIAYRKLRVYLKD | -2.36
9 | HMDGKTALQEIVASSGWSPPEYKVSESGPDHDKDFVAYAIVNGVAYPEGHGKSKREAEQVAARIAFEALSK | -0.0295
10 | HMQILNVFSKHGIKPISPQIGDKFDPQLHEAMFEAPVPGTKAGDIIEVSSEGFMLYDRLLRPAHVGVSSN | -0.0306
11 | HMVQMNMLELQEEMQRDRSWIIKHLFQDEYFRRKIAKFSQFPINDSGKYLFHRKSMLKFLNDYAEEIVER | -2.88
12 | HMRSMEKRLTAKVKRVQEGVQAKSQAGEQPFEVVKLMQRFPKLMQFGKHAEAETVLDKALELLGEE | -0.0318
13 | HMVTTLLIINVAGKVKNPGVYQLPPGSRVVDALEAAGQQLKGVDISDINLARVLVDGEQILIGSN | -2.5
14 | HMEQFRENIVRIYMEIDDYENGAKFLEMGNNRDASFYELAGDFYKYFGENELANENYDLAISA | -0.629
15 | HMKHMTMYEAAKIAKEVGAPKLWLTHYSPSMTRPEEFMDDVRKIFPAAYAAKDGWTMELNFDEG | -0.74
16 | HMTSHPTHTILDGKVHVFMRDGSPFWWGGFHFKGKYLRTSTKQKNLDSAKTIAQQWYFQKQTEIASGE | -2.85
17 | HMNVVINNELVSLMVEAMKDGVSSKSIQEEFEGYKISGKTITKKVLTAHVNKALEVFADMQE | -0.582
18 | HMKNLKPSTEVILKELVKRYPDQTEFRKQQIVDVGQSFGYKGKDYGPIFDADNRVKIGTYDLAGLIVPLQR | 0.0472
19 | HMEPAPELTPREQQVLARIALGMTDKAIAEELGVSHQTVRNHVARIYQKIKVHSRSQAVVWAREKGI | -1.47
20 | HMDKWFPVSSDHKVQVGDYLRTADGLVKVEATHNEYGTFYGKIITAIHDDVVKGETYEYRIDDVQVLA | -0.00685
21 | HMVANDQILNQYGISDREAEIIGLLIEGLSNQQIAKQLYISPNTVKTHIKNIYAKVGVNNRLQLFSLLK | -0.435
22 | HMPQNVSVPDVTNMTQAEAESKLKEKNLAVGNIIPELSTTVEKDKVTRTNPESGSNVRKNSKVDIYVSQG | 0.154
23 | HMTAVPADVETVTGFTALDRAGLDTLLARLGLAMDLEDLSFLQAYFRDTERRDPTLTEIRVVDTYWSDH | -1.1
24 | HMTETELYDEVNRLIGLHLSERDRMILIMRDRDEFEIDAIAARTGLSEGNIRLILSRARRTVREAYRNNI | -4.11
25 | HMNYYDLLGIPKSATKQQIRKAYRTKAKEFHPDVNGPFNSHMHFLLLKQAYETLMDANMRHVYDMALIS | -2.4
26 | HMSLIHEQSLKEIRIFINNLPESLRTAFTLREQDGLSYEEISKITDTPIGTVRSRIFRARESILEHINEEL | -2.25

Row | Sequence | soluble fraction (log2)
27 | HMVEFLMESTNGMYGIVKEGSSYYVQKGINESSLDYIGGMFMKDKNRFSSYSTALKRLELISGQET | -0.419
28 | HMYPTPAAANRHFLDKWGHQEAYLGKVLNSRSRASEILNGKRPLSLSDLRTLRDNLGIPVDLLL | -0.648
29 | HMEKINLIIEEDNNLRLDKVIAMQLQELSRTQIQDMINQGLVLVNQKKEKASYKTKLNDEIEITILD | -1.13
30 | HMSAETREELVGREGVSLTDLRPSGFALFGQEKIDVVSESEFIEEGTSVRIVSVEGSRHIVRAKR | -0.0724
31 | HMNEDDQLLKVLLAEPLRLEELYNLDLKPQGPYNLQTWIMVHLTELERDGLIARFPDGRYGPAR | -2.03
32 | HMRHYVLKENNGVIAIYKVNQENEAVFKENTQIQVQYLPEVDLINLKKGIYAIGEEKLNSILEDF | -0.667
33 | HMSDRLRPGDMVVVVGKKKRYPVFSAFDIDFVEAGDVGKVLTVKREEVVVGFPKKGEGTFTPSELNIAH | -1.18
34 | HMTADIRFLNSRKFYIYKVEKGETLFSISQKFNIPQEEIIQFNKDINQQGLKAKTKLWVPAYSWL | -3.46
35 | HMKFLYQKAREEIISLIQDGEIKPSEKIMPERELSELLGYNRMTIKKAINSLVAEGVLMKKRGAGTFLLG | -0.292
36 | HMSHGNAALTPRQRLRLARLVVDDQWSVSAAAEFFRVSYPTAAKWARRYVELGPAGMADRSS | -1.62
37 | HMSTANIVVPDVKGKTFEEAKKAIEAEGLTAKAEGDESGVVQKTSPSYGVSVESGSEVTLTLVKSDD | 0.494
38 | HMLGVLEYYNNGQKKSERTFKGGMQIYTEWYENGQMKAEERKWIDQLGSLKFLNLLSTEWDENGNEISRME | -1.55
39 | HMKAEKEIEKIKFTIYNEFKRKQEENHFLPPWDGTKMLRQFVLGVVANNPKYQHVNTDILYRDLLLLYYQ | -2
40 | HMSNEITVPDLSGMSLEELETILSDRSLSYEIIDSIYNSTAKKGTVSSQDPLPDAKVKSGRTIYITVVSKL | -1.85
41 | HMRKKTYEIITDDLRRMIEAGLIRPGEKLGAIDQLAAKYRVGRSTVREALSHLKALGLVESRQGGGTYVTK | 0.375
42 | HMDSPVLTAEIKALIDKELEQNAVKLATGLKKQRKRATDIHDALIRQGHEVSYRTVVRYIRNKTAQTS | -0.751
43 | HMNTEFDVPDVVGKTLDEAEFVLKGSNLKRGLIMPVDDPSKAPGTIVRQNPEAGAGNKIRVGDVVDLWVVG | 0.271
44 | HMAFRLPNGYGTIRRLTGNRRKPYVALVNPTQVFDDEKGTSHYKYDLLGTFAEKIDAYNAVMQYHKSPGGL | -1.13
45 | HMIMNDIQAKVLEIAETKDLGSITYYRLSKMLGVDHPYRVKYAIDKLIEKGLLTAKSDGSITKAI | -1.47
46 | HMNDTPPELRAALDLLGLKWPLASVELRARYKDLAKQHHPDATGGDKQAEERLKDINRAYSLLKHRLAKQ | -0.143
47 | HMEAFDYLGRRTRDLLERQGWTTVPLVRDAYLAVPGGERLLQVPGFGRKSLREVRRWLWLQIGDPRFE | -1.25
48 | HMKIVPEPGTVLIREYQEERHEVTVTLDGAFDYKGTLYSSLSEIARLITGTRWSGPVFFGLRS | -0.369
49 | HMESGFEAVREVARHGSFANAAKALGVSGPAVSRQVKSLEERLGLVFFHRTTRMVTLTEAGQQLVDTLD | 0.0837
50 | HMPEFKDMLKFFRMREHLSQSELAEKLGISASTVSMYEVGRRQPDFETEEKIADFFNTDLNTLRG | -0.693
51 | HMNDGTIRVGTNVTIKPSAKRWATGQNIYYGVKGKTYKVIQMNGNRLLLDKVISWINKGDVYVPGS | -0.741
52 | HMSDHYEVLGVDRNATDDQIKKAYRRLARELHPDVNDAPESQEKFKLVTHAYEVLSDPDERRKYDMG | -0.0229

Row | Sequence | soluble fraction (log2)
53 | HMIAIGDDARLDDAARFFRIAEDSYAAGDYRKSKENYIEARKLYAELGDHEKVNLINSKISAIDSIT | 0.0977
54 | HMEDYYKILGVSKDASIDDIKKSYRKLSLQNHPDRNKSPQASENFAKINSAYEVLSDQRKKRQYDMQQSM | -0.073
55 | HMASVAKHIRRLRTERHMTQGDLAEKLFVTRQTVSAWETGKAQPDLETLERIAVVLGVEVTELIYGAP | -0.707
56 | HMGETAFRYALPLDQGEALKRSHVIRQSISPDDALATRVTVLEDVLDQTLRQPVQAGEVLLEDHFTR | -0.0825
57 | HMSSLDTLTARETQILAEMAQGKNNAAIAAAVSVSERAVEKHTNSIFAKLGLSEEKDVNRRVMAVLLFLGR | -3.6
58 | HMPSLGADIRALRKSRKMTLVALADALGRSVGWLSQVERDKSHATIADLGRMAEVLDVSISSFL | -0.273
59 | HMNRPQDLGEPYDGQFREHPEAWAFYAAQSPSYRRSASWWVLGAKQEVTRQRRLAALIDASAQGTRIPALT | -1.8
60 | HMDAVDKDGNHMTFKKWSEQLQEAFHALELYDTTRAKQILSELVKFQVDSDITKSLKAIITNIDDMMA | -1.13
61 | HMDEIDYSKYSITTSNRIINIDGVQSKVELFDVSGRSIQSTMVTGKFSSRPLNAGFYIIHVDGYSVKVSV | -1.19
62 | HMPEKNQITHLIRLIDDRDEFVRKRVREQLIKLGEDAIPFLEMAAKTENLEIQRIASEIIQAIIPRQ | -0.745
63 | HMDKFTYVVKKEDEQYQIKDILRHNFTFSSRLRKKLKQNNSIFLNGAETVGWATPKEGDIISVRLP | -0.883
64 | HMSYQFKIKNNAAVEVTVSEKNNLLGSTYGDKATVAAGMEKNVTFYTDKPDVVVDTNGNFTITVHDKEIII | 0.0601
65 | HMLKPQQTQRIYAMAARLGVLESGNKNDMLHTIVYRLTQKESIRSLNENEYKTVVSELAERLKL | -1.12
66 | HMSGLLTTSKLAQKHKMKTEPMLEKLTAAGYLEWRDDKHSLTEQGKKAGGQFKTGRFGAYFLWPEDLV | -0.116
67 | HMGERMELTLDNPREAIPVLDAMGFANYQVVDKEHIHIFERLNESALVNMELAKAGIPVKGISITSE | 0.0918
68 | HMGKLGENIKRIREGMGLSQRQFGELIGKSDSQIWSYENDRTDILASTLYKIAAVANVDFNNLMAGIIP | -1.07
69 | HMDNWLSGLAVEADRMILTQPGEVFDRLSRAFEATLIRRALASTGGRRIEAAHLLGIGRNTITRKIQDLGL | -2.62
70 | HMRDISTDTSAWTFQDIKRYYDPQDLLTEKQVGQALSLIKGRNLNPLLNEVYIVAYKKKNGGAEFSLIV | -0.224
71 | HMSDQIQQIAERIAGLRDIAGYSVEELARELGISAEEYKRYESGEVDIPIGFLYKLANKYNVELTAILT | -0.289
72 | HMFIEHSKYKLSFKYNQLGKISNVINSNNGIIMDKHFDQNITLLAKLTENTFQEIIKHFPTIIIKRL | -3.74
73 | HMPKNVEVPNVVGLSLPMAKLRLTQLGLHIVVRDSVWSETGQPNTILDQDPQPGKKIKPESTVYVKVN | -1.48
74 | HMPSSFLVKVTADALNIRSGPGVANRITGTIKDKGTYTIVDTKDDWGKLKSGVGWIHLGYTKRLD | -0.857
75 | HMDADGEPIKLDQIGISHLSFTVADVKSLGEELVAKGVKLAAPMEAFTSPEGRISSIFVYDPDGILLQFDD | 0.136
76 | HMEELELTIDGEMVGRIDKQLGHHFDQFSRSQIQHWIEDGHVLVNGKQVKPKYKLLVGDHVQIIPEEPQK | 0.261

From the domain aggregation screens of Martell et al. (2025)
